Data on two molecules can be found in PMC5500549, “DNA binding strength increases the processivity and activity of a Y-Family DNA polymerase” (Scientific Reports, 2017).

The subject of data set [1] is Dbh (WT) (Sulfolobus acidocaldarius). Kind of data set: fluorescence titration (2AP). Particulars: 2-aminopurine at the primer terminus; 50 mM Tris acetate pH 7.5, 50 mM sodium acetate, 10 mM magnesium acetate, 5 mM DTT, 0.05% Tween 20, 25 °C; 100 nM 2AP-P/T, 0-1000 nM pol.
The subject of data set [2] is Sdbh (Sso7d-Dbh fusion) (Sulfolobus acidocaldarius (Dbh); Sso7d source organism not stated). Kind of data set: fluorescence titration (2AP). Particulars: 2-aminopurine at the primer terminus; 50 mM Tris acetate pH 7.5, 50 mM sodium acetate, 10 mM magnesium acetate, 5 mM DTT, 0.05% Tween 20, 25 °C; 100 nM 2AP-P/T, 0-1000 nM pol.
The test system of data set [3] is SdbhA221S (Sulfolobus acidocaldarius (Dbh); Sso7d source organism not stated). Kind of data set: fluorescence titration (2AP). As to conditions: 10 mM Mg2+; 2-aminopurine at the primer terminus; 50 mM Tris acetate pH 7.5, 50 mM sodium acetate, 10 mM magnesium acetate, 5 mM DTT, 0.05% Tween 20, 25 °C; 100 nM 2AP-P/T, 0-1000 nM pol.
Data set [4] relates to SdbhI62V (Sulfolobus acidocaldarius (Dbh); Sso7d source organism not stated). Kind of data set: fluorescence titration (2AP). Particulars: 2-aminopurine at the primer terminus; 50 mM Tris acetate pH 7.5, 50 mM sodium acetate, 10 mM magnesium acetate, 5 mM DTT, 0.05% Tween 20, 25 °C; 100 nM 2AP-P/T, 0-1000 nM pol.
Data set [5] concerns SdbhK337R (Sulfolobus acidocaldarius (Dbh); Sso7d source organism not stated). Kind of data set: fluorescence titration (2AP). As to conditions: 2-aminopurine at the primer terminus; 50 mM Tris acetate pH 7.5, 50 mM sodium acetate, 10 mM magnesium acetate, 5 mM DTT, 0.05% Tween 20, 25 °C; 100 nM 2AP-P/T, 0-1000 nM pol.
Data set [6] deals with SdbhKSKIP241-245RVRKS (Sulfolobus acidocaldarius (Dbh); Sso7d source organism not stated). Kind of data set: fluorescence titration (2AP). Particulars: 2-aminopurine at the primer terminus; 50 mM Tris acetate pH 7.5, 50 mM sodium acetate, 10 mM magnesium acetate, 5 mM DTT, 0.05% Tween 20, 25 °C; 100 nM 2AP-P/T, 0-1000 nM pol.
In data set [7] the test system is SdbhL250V (Sulfolobus acidocaldarius (Dbh); Sso7d source organism not stated). Kind of data set: fluorescence titration (2AP). Particulars: 2-aminopurine at the primer terminus; 50 mM Tris acetate pH 7.5, 50 mM sodium acetate, 10 mM magnesium acetate, 5 mM DTT, 0.05% Tween 20, 25 °C; 100 nM 2AP-P/T, 0-1000 nM pol.
Data set [8] has as its system SdbhM76I (Sulfolobus acidocaldarius (Dbh); Sso7d source organism not stated). Kind of data set: fluorescence titration (2AP). As to conditions: 2-aminopurine at the primer terminus; 50 mM Tris acetate pH 7.5, 50 mM sodium acetate, 10 mM magnesium acetate, 5 mM DTT, 0.05% Tween 20, 25 °C; 100 nM 2AP-P/T, 0-1000 nM pol.
Data set [9] deals with SdbhT37F (Sulfolobus acidocaldarius (Dbh); Sso7d source organism not stated). Kind of data set: fluorescence titration (2AP). As to conditions: 2-aminopurine at the primer terminus; 50 mM Tris acetate pH 7.5, 50 mM sodium acetate, 10 mM magnesium acetate, 5 mM DTT, 0.05% Tween 20, 25 °C; 100 nM 2AP-P/T, 0-1000 nM pol.
Data set [10] relates to SdbhY249I (Sulfolobus acidocaldarius (Dbh); Sso7d source organism not stated). Kind of data set: fluorescence titration (2AP). Particulars: 2-aminopurine at the primer terminus; 50 mM Tris acetate pH 7.5, 50 mM sodium acetate, 10 mM magnesium acetate, 5 mM DTT, 0.05% Tween 20, 25 °C; 100 nM 2AP-P/T, 0-1000 nM pol.
Substrate in data set [11]: Nc1ccn([C@H]2C[C@H](O)[C@@H](COP(=O)(O)OP(=O)(O)OP(=O)(O)O)O2)c(=O)n1
Kind of data set: steady-state single-nucleotide insertion, FAM-primer gel assay. Type of data set: biochemical, Sulfolobus acidocaldarius. As to conditions: opposite template G (correct), 1.0 μM primer-template, 20 nM pol, 5 mM MgCl2, 100 mM KCl, pH 7.5, 37 °C, apparent Km. The text has this:
(§1) steady-state single-nucleotide insertion, FAM-primer gel assay on Dbh (WTDbh)

Substrate in data set [12]: Nc1ncnc2c1ncn2[C@H]1C[C@H](O)[C@@H](COP(=O)(O)OP(=O)(O)OP(=O)(O)O)O1
The data set is described as above. It counts as biochemical, Sulfolobus acidocaldarius. Particulars: opposite template G (incorrect, misinsertion), 1.0 μM primer-template, 20 nM pol, 5 mM MgCl2, 100 mM KCl, pH 7.5, 37 °C, apparent Km.
Source text: as §1

For orientation: Kd means the equilibrium constant for the complex coming apart. A high value points to a looser complex. On to 2AP-P/T primer-template, for which the Kd in [1] was 54.8 nM; in data set [2], 51.2 nM; in [3], 47.5 nM; in [4] it was 49.8 nM; in data set [5], 55.5 nM; in data set [6] it was 34.8 nM. Moreover, the Kd worked out at 50.4 nM in data set [7], 42.8 nM in data set [8], 49.7 nM in data set [9] and 56.2 nM in [10].

B1: Dbh (WTDbh) (Sulfolobus acidocaldarius DSM 639) (protein)
chain: MIVIFVDFDYFFAQVEEVLNPQYKGKPLVVCVYSGRTKTSGAVATANYEARKLGVKAGMPIIKAMQIAPSAIYVPMRKPIYEAFSNRIMNLLNKHADKIEVASIDEAYLDVTNKVEGNFENGIELARKIKQEILEKEKITVTVGVAPNKILAKIIADKSKPNGLGVIRPTEVQDFLNELDIDEIPGIGSVLARRLNELGIQKLRDILSKNYNELEKITGKAKALYLLKLAQNKYSEPVENKSKIPHGRYLTLPYNTRDVKVILPYLKKAINEAYNKVNGIPMRITVIAIMEDLDILSKGKKFKHGISIDNAYKVAEDLLRELLVRDKRRNVRRIGVKLDNIIINKTNLSDFFDI
notes: synthetic gene, 6xHis tag (C-terminal by gene design, N-terminal by purification), expressed in E. coli BL21(DE3), Ni-NTA and Mono-S
The term Km denotes the substrate concentration at which the rate is half of its maximum. A word on the Vmax: it is the top rate of the reaction or transport when substrate is in excess. B1: the Michaelis constant (Km) in data set [11] stood at 88.2 ± 12.0 µM; in data set [12], 215.2 ± 18.7 µM. The maximum rate (Vmax) was 0.001 µM/min in data set [11] and 1.9e-05 µM/min in [12].
